US20200113997A1
Changes are numbered by the printed parent chain.

B1: DH270.IA3 (protein)
chain 1: QVQLVQSGAEVKKPGASVKVSCKASGYTFTDYYIHWVRQAPGQGLEWMAWINPTTGRTNYARKFQGRVTMTRDTSISTAYMELRRLRSDDTAVYYCARGGWIGLYVDYSGYPNFDSWGQGTLVTVSS
chain 2: QSALTQPASVSGSPGQSITISCTGTSYDVGSYNLVSWYQQHPGKAPKLMIYEVSKWPSGVSNRFSGSKSGNTASLTISGLQAEDEADYYCCSYAGSSTVIFGGGTKLTVL
B2: DH270.IA1 (protein)
chain 1: B1 chain 1 with A49G, T54N, R62Q, T69I, R84S, V106Y, Y108S, S116Y
chain 2: B1 chain 2 with W56R
B3: DH270.IA2 (protein)
chain 1: B1 chain 1 with V11M, A49G, T54N, R62Q, R84S, R87T, R98T, V106Y, Y108S, S116Y
chain 2: B1 chain 2 with L48Y, S54N, W56R
B4: DH270.6 (antibody, V domains shown)
VH: QVQLVQSGAQMKNPGASVKVSCAPSGYTFTDFYIHWLRQAPGQGLQWMGWMNPQTGRTNTARNFQGRVIMTRDTSIGTAYMELRSLTSDDTAIYYCTTGGWISLYYDSSYYPNFDHWGQGTLLTVSS
VL: TSLLTQPASVSGSPGQSITISCTGTKYDVGSHDLVSWYQQYPGKVPKYMIYEVNKRPSGVSNRFSGSKSGNTASLTISGLRAEDEADYYCCSFGGSATVVCGGGTKVTVL

Key:
Man9-V3 glycopeptide = experiment: BLI
[1] = target: Man9-V3 glycopeptide (HIV-1 (clade B JRFL mini-V3)); experiment: BLI, biotinylated peptide on streptavidin sensor, bivalent avidity model

Row | Binder | Kd (Man9-V3 glycopeptide) | Kd [1]
1 | B1 | > 10 µM | –
2 | B2 | 3.29 µM | –
3 | B3 | > 10 µM | –
4 | B4 | – | 0.188 µM
